Assay in all cases: negative stain EM
In series [1] the target is LdcI R97E/R468E double mutant (E. coli) (UniProt P0A9H3).
Series [2] addresses Dendra2 T69A-LdcI (N-terminal fluorescent protein fusion of LdcI) (not stated | E. coli) (UniProt P0A9H3).
In series [3] the target is LdcI-mGeosM (C-terminal fluorescent protein fusion of LdcI) (E. coli | not stated) (UniProt P0A9H3).
For series [4], the target named is LdcI-Dendra2 T69A (C-terminal fluorescent protein fusion of LdcI) (E. coli | not stated) (UniProt P0A9H3).
Series [5] deals with LdcI E445A/D447A/R468E triple mutant (E. coli) (UniProt P0A9H3).
The series “negative stain EM” concerns the molecule itself.

Numbering of substitutions follows the chain as printed. In names and notes the source's numbering stands.

Consider “LdcI R97E/R468E double mutant (from UniProt P0A9H3 1-715) (enzyme)”, for which the stoichiometry N (as a rule, the number of molecules, sites or subunits per partner or assembly) in series [1] turned out to be 10.

For the molecule “Dendra2 T69A-LdcI (N-terminal fluorescent protein fusion of LdcI) (from UniProt P0A9H3 1-715) (enzyme)”, the stoichiometry N in series [2] was 2.

Consider “LdcI-mGeosM (C-terminal fluorescent protein fusion of LdcI) (from UniProt P0A9H3 1-715) (enzyme)”, for which, in series [3], the stoichiometry N stood at 10.

Molecule “LdcI-Dendra2 T69A (C-terminal fluorescent protein fusion of LdcI) (from UniProt P0A9H3 1-715) (enzyme)” yielded a stoichiometry N in series [4] of 10.

As for “LdcI E445A/D447A/R468E triple mutant (from UniProt P0A9H3 1-715) (enzyme)”, in series [5], the stoichiometry N came out at 10.

B1: LdcI E445A/D447A double mutant (enzyme, E. coli)
chain: MNVIAILNHMGVYFKEEPIRELHRALERLNFQIVYPNDRDDLLKLIENNARLCGVIFDWDKYNLELCEEISKMNENLPLYAFANTYSTLDVSLNDLRLQISFFEYALGAAEDIANKIKQTTDEYINTILPPLTKALFKYVREGKYTFCTPGHMGGTAFQKSPVGSLFYDFFGPNTMKSDISISVSELGSLLDHSGPHKEAEQYIARVFNADRSYMVTNGTSTANKIVGMYSAPAGSTILIDRNCHKSLTHLMMMSDVTPIYFRPTRNAYGILGGIPQSEFQHATIAKRVKETPNATWPVHAVITNSTYDGLLYNTDFIKKTLDVKSIHFDSAWVPYTNFSPIYEGKCGMSGGRVEGKVIYETQSTHKLLAAFSQASMIHVKGDVNEETFNEAYMMHTTTSPHYGIVASTETAAAMMKGNAGKRLINGSIERAIKFRKEIKRLRTASAGWFFDVWQPDHIDTTECWPLRSDSTWHGFKNIDNEHMYLDPIKVTLLTPGMEKDGTMSDFGIPASIVAKYLDEHGIVVEKTGPYNLLFLFSIGIDKTKALSLLRALTDFKRAFDLNLRVKNMLPSLYREDPEFYENMRIQELAQNIHKLIVHHNLPDLMYRAFEVLPTMVMTPYAAFQKELHGMTEEVYLDEMVGRINANMILPYPPGVPLVMPGEMITEESRPVLEFLQMLCEIGAHYPGFETDIHGAYRQADGRYTVKVLKEESKK
As to B1, in “negative stain EM”, the binding result is “binds”.

B2: LdcI R97E (enzyme, E. coli)
chain: B1 chain with R97E, A445E, A447D
For B2, in the series “negative stain EM”, the binding result is recorded as “binds”.

B3: LdcI H694N (enzyme, E. coli)
chain: B1 chain with A445E, A447D, H694N
For B3, the binding result in the series “negative stain EM” is given as “binds”.

B4: LdcI H694A (enzyme, E. coli)
chain: B1 chain with A445E, A447D, H694A
For B4, the binding result in the series “negative stain EM” is “binds”.

The values are drawn from publication PMC7812809 (Proceedings of the National Academy of Sciences of the …, 2020).
